Experimental data as given in patent US20190218553, “VON WILLEBRAND FACTOR (VWF)-TARGETING AGENTS AND METHODS OF USING THE SAME” (DUKE UNIVERSITY, published 2019).

How the values were obtained:
[1] = biological target: T1, von Willebrand factor (VWF) (Homo sapiens, UniProt P04275 P04275:764-2813); experiment: filter; Bmax 66%; 2 mM CaCl2, 37 C; conditions: tags: factor VIII free, Haematologic Technologies Inc; label: 5'-32P
Description: (§1) Affinity constants (Kd values) were determined using double-filter nitrocellulose filter binding assays (Rusconi et al, Thromb. Haemost. $4:841-848 (2000)). All binding studies were performed in binding buffer F (20 mM HEPES, pH 7.4, 150 mM NaCl, 2 mM CaCl₂, and 0.01% BSA) at 37° C. Human purified VWF (factor VIII free) was purchased from Haematologic Technologies Inc. (Essex Junction, Vt.) and used in the double-filter nitrocellulose filter binding assay to determine the Kd of the aptamers. Briefly, RNA were end-labeled at the 5′ end with T4 polynucleotide kinase (New England Biolabs, Beverly, Mass.) and [γ³²P] ATP (Amersham Pharmacia Biotech, Piscataway, N.J.) (Fitzwater and Polisky, Methods Enzymol. 267:275-301 (1996)). End-labeled RNA was diluted in binding buffer F, heat denatured at 65° C. for 5 minutes, and subsequently equilibrated at 37° C. Direct binding was performed by incubating trace ³²P-RNA with varying concentrations of VWF protein in binding buffer F at 37° C. for 5 min. The fraction of the nucleic acid-protein complex which bound to the nitrocellulose membrane was quantified with a phosphorimager (Molecular Dynamics, Sunnyvale, Calif.). Non-specific binding of the radiolabeled nucleic acid was subtracted out of the binding such that only specific binding remained (Wong and Lohman, Proc. Natl. Acad. Sci. USA 90:5428-5432 (1993)).

[2] = biological target: T1, von Willebrand factor (VWF); experiment: filter; Bmax 55%; 2 mM CaCl2, 37 C; conditions: tags: factor VIII free, Haematologic Technologies Inc; label: 5'-32P
Description: as §1

[3] = biological target: T1, von Willebrand factor (VWF); experiment: filter; Bmax 59%; 2 mM CaCl2, 37 C; conditions: tags: factor VIII free, Haematologic Technologies Inc; label: 5'-32P
Description: as §1

[4] = biological target: T1, von Willebrand factor (VWF); experiment: filter; Bmax 67%; 2 mM CaCl2, 37 C; conditions: Haematologic Technologies Inc, label: 5'-32P
Description: as §1

[5] = biological target: T1, von Willebrand factor (VWF); experiment: filter; Bmax 56%; 2 mM CaCl2, 37 C; conditions: tags: factor VIII free, Haematologic Technologies Inc; label: 5'-32P
Description: as §1

[6] = biological target: T1, von Willebrand factor (VWF); experiment: filter; Bmax 73%; 2 mM CaCl2, 37 C; conditions: Haematologic Technologies Inc, label: 5'-32P
Description: as §1

[7] = biological target: T1, von Willebrand factor (VWF); experiment: filter; Bmax 79%; 2 mM CaCl2, 37 C; conditions: tags: factor VIII free, Haematologic Technologies Inc; label: 5'-32P
Description: as §1

[8] = biological target: T1, von Willebrand factor (VWF); experiment: filter; Bmax 57%; 2 mM CaCl2, 37 C; conditions: tags: factor VIII free, Haematologic Technologies Inc; label: 5'-32P
Description: as §1

[9] = biological target: T1, von Willebrand factor (VWF); experiment: filter; Bmax 60%; 2 mM CaCl2, 37 C; conditions: tags: factor VIII free, Haematologic Technologies Inc; label: 5'-32P
Description: as §1

[10] = biological target: T1, von Willebrand factor (VWF); experiment: filter; Bmax 10%; 2 mM CaCl2, 37 C; conditions: tags: factor VIII free, Haematologic Technologies Inc; label: 5'-32P
Description: as §1

[11] = biological target: T1, von Willebrand factor (VWF); experiment: filter; Bmax 83%; 2 mM CaCl2, 37 C; conditions: Haematologic Technologies Inc, label: 5'-32P
Description: as §1

[12] = biological target: T1, von Willebrand factor (VWF); experiment: filter; Bmax 71%; 2 mM CaCl2, 37 C; conditions: Haematologic Technologies Inc, label: 5'-32P
Description: as §1

[13] = biological target: T1, von Willebrand factor (VWF); experiment: filter; Bmax 49%; 2 mM CaCl2, 37 C; conditions: Haematologic Technologies Inc, label: 5'-32P
Description: as §1

[14] = biological target: T1, von Willebrand factor (VWF); experiment: filter; Bmax 13%; 2 mM CaCl2, 37 C; conditions: tags: factor VIII free, Haematologic Technologies Inc; label: 5'-32P
Description: as §1

[15] = biological target: T1, von Willebrand factor (VWF); experiment: filter; Bmax 52%; 2 mM CaCl2, 37 C; conditions: tags: factor VIII free, Haematologic Technologies Inc; label: 5'-32P
Description: as §1

[16] = tags: factor VIII free human purified VWF

Binder: ACGAACUGCCCUCAGUACUUUCAUGUUCUGACGCACAGACGU (ssRNA, 2'-F C and U; 2'-OH A and G; 3' idT) [T35]
- Kd [1]: 12 nM

Binder: ACGAACUGCCCUCAGCACUUUCAUGUGCUGACGCACAGACGU (ssRNA, 2'-F C and U; 2'-OH A and G; 3' idT) [T33]
- Kd [1]: 15 nM

Binder: ACGAACUGCCCUCGCACUUUCAUGUGCGACGCACAGACGU (ssRNA, 2'-F C and U; 2'-OH A and G; 3' idT) [T38]
- Kd [2]: 9.6 nM

Binder: AAAAACGAACUGCCCUCGAUCGACGCACAGACGU (ssRNA, 2'-F C and U; 2'-OH A and G; 3' idT) [T77]
- Kd [3]: 8.8 nM

B1: T25 vrt6 (ssRNA)
RNA: ACGAACUGCCCUCAGCUACUUUCAUGUUGCUGACGCACAGACGU
modifications: rAfCrGmAmAmCfUrGfCfCfCfUfCrArGfCfUrAfCfUfUfUfCrAfUrGfUfUrGfCfUrGrAfCrGfCrAmCmAmGmAfCrGfU-idT
- Kd ([4]; tags: factor VIII free): 3.1 nM

B2: T25 vrt17 (ssRNA)
RNA: B1 RNA
modifications: rAfCrGrArAfCmUrGfCfCfCfUfCrArGfCfUrAfCfUfUfUfCrAfUrGfUfUrGfCfUrGrAfCrGfCmAfCrArGrAfCrGfU-idT
- Kd [5]: 23 nM

B3: T25 vrt15 (ssRNA)
RNA: B1 RNA
modifications: rAmCrGrArAfCfUrGfCfCfCfUfCrArGfCfUrAfCfUfUfUfCrAfUrGfUfUrGfCfUrGrAfCrGfCrAfCrArGrAfCmGfU-idT
- Kd ([6]; tags: factor VIII free): 7.3 nM

B4: T25 vrt13 (ssRNA)
RNA: B1 RNA
modifications: rAfCrGmAmAmCfUrGfCfCfCfUmCmAmGmCmUmAmCmUmUmUmCmAmUmGmUmUmGmCmUmGrAfCrGfCrAmCmAmGmAfCrGfU-idT
- Kd [7]: 1.9 nM

B5: T25 vrt9 (ssRNA)
RNA: B1 RNA
modifications: rAfCrGrArAfCfUrGfCfCfCfUfCmAmGfCfUmAfCfUfUfUfCrAfUrGfUfUmGfCfUmGrAfCrGfCrAfCrArGrAfCrGfU-idT
- Kd [8]: 9.8 nM

B6: T25 vrt11 (ssRNA)
RNA: B1 RNA
modifications: rAfCrGrArAfCfUrGfCfCfCfUfCrArGfCfUrAfCfUfUfUfCmAfUmGfUfUrGfCfUrGrAfCrGfCrAfCrArGrAfCrGfU-idT
- Kd [8]: 7.2 nM

B7: T25 vrt12 (ssRNA)
RNA: B1 RNA
modifications: rAfCrGrArAfCfUrGfCfCfCfUfCrArGfCfUrAmCmUmUmUmCmAmUmGfUfUrGfCfUrGrAfCrGfCrAfCrArGrAfCrGfU-idT
- Kd [3]: 7.1 nM

Binder: ACGAACUGCCCUCGUAAGACGCACAGACGUUUUUU (ssRNA, mAmCmGmAmAmCmUmGfCfCfCmUmCmGmUmAmAmGmAfCrGfCmAmCmAmGmAmCmGfUmUmUmUmUmUidT) [DTRI-012]
- Kd ([6]; tags: factor VIII free): 5.5 nM

Binder: ACGAACUGCCCUCGUAAGACGCACAGACGUUUUUU (ssRNA, mAmCmGmAmAmCmUmGfCfCfCmUmCmGmUmAmAmGmAfCfGfCmAmCmAmGmAmCmGmUmUmUmUmUmUidT) [DTRI-034]
- Kd [9]: 2.8 nM

Binder: GGGAGGUCAGCUACUUUCAUGUUGCUGACGCACAGACGACUCGCUG (ssRNA, 2'-F C and U; 2'-OH A and G) [T21]
- Kd [10]: 26 nM

B8: T83 vrt1 (ssRNA)
RNA: ACGAACUGCCCUCGAUCGACGCACAGACGUAAAAA
modifications: 2'-F C2,U7,C9,C10,C11,U12,C20,C22,C28,U30; ribo A1,G3,G8,A19,G21,A23,G29; rest 2'-OMe; 3' idT
- Kd [6, 16]: 2.1 nM

Binder: ACGAACUGCCCUCGAUCGACGCACAGACGUACCCG (ssRNA, 2'-F C9,C10,C11,C20,G21,C22,U30; rest 2'-OMe; 3' idT) [T82 vrt6]
- Kd [4, 16]: 223 nM

Binder: ACGAACUGCCCUCGAUCGACGCACAGACGUAAAAA (ssRNA, 2'-F C9,C10,C11,C20,G21,C22; rest 2'-OMe; 3' idT) [T83 vrt7]
- Kd [11, 16]: 265 nM

Binder: ACGAACUGCCCUCGAUCGACGCACAGACGUAAAAA (ssRNA, 2'-F C9,C10,C11,C20,G21,C22,U30; rest 2'-OMe; 3' idT) [T83 vrt6]
- Kd [4, 16]: 209 nM

Binder: ACGAACUGCCCUCGAUCGACGCACAGACGUACACG (ssRNA, 2'-F C9,C10,C11,C20,G21,C22,U30; rest 2'-OMe; 3' idT) [T84 vrt6]
- Kd [12, 16]: 149 nM

Binder: ACGAACUGCCCUCAGCACUUAUGUGCUGACGCACAGACGU (ssRNA, 2'-F C and U; 2'-OH A and G; 3' idT) [T41]
- Kd ([13]; tags: factor VIII free): 8.6 nM

Binder: ACGAACUGCCCUCGAUCGACGCACAGACGU (ssRNA, 2'-F U7,C9,C10,C11,U12,C20,C22,U30; ribo A19,G21; rest 2'-OMe; 3' idT) [T59 vrt24]
- Kd [11, 16]: 2.4 nM

Binder: ACGAACUGCCCUCGAUCGACGCACAGACGU (ssRNA, mAmCmGmAmAmCmUmGfCfCfCmUmCmGmAmUmCmGmAfCrGfCmAmCmAmGmAmCmGmUidT) [DTRI-008]
- Kd ([4]; tags: factor VIII free): 7 nM

B9: T15 (ssRNA)
RNA: GGGAGGUGGACGAACUGCCCUCAGCUACCAUGUUGCUGACGCACAGACGACUCGCUG
modifications: 2'-F C and U; 2'-OH A and G
- Kd [14]: 83 nM

Binder: ACGAACUGCCCUCGAUUUCGACGCACAGACGU (ssRNA, 2'-F C and U; 2'-OH A and G; 3' idT) [T60]
- Kd ([12]; tags: factor VIII free): 12.5 nM

Binder: ACGAACUGCCCUCUUUUUUGACGCACAGACGU (ssRNA, 2'-F C9,C10,C11,C22,G23,C24; rest 2'-OMe; 3' idT) [T94 vrt7]
- Kd [12, 16]: 29 nM

Binder: ACGAACUGCCCUCAGACUUAUGUCUGACGCACAGACGU (ssRNA, 2'-F C and U; 2'-OH A and G; 3' idT) [T51]
- Kd [5]: 17 nM

Binder: ACGAACUGCCCUCGAUCGACGCACAGACGU (ssRNA, mAmCmGmAmAmCmUrGfCfCfCmUmCmGmAmUmCmGmAfCrGfCmAmCmAmGmAmCmGfU-idT) [T59 vrt18]
- Kd ([11]; tags: factor VIII free): 5.7 nM

Binder: ACGAACUGCCCUGAUUAUUCACGCACAGACGU (ssRNA, 2'-F C and U; 2'-OH A and G; 3' idT) [T69]
- Kd [15]: 26 nM

Binder: ACGAACUGCCCUCGAUCGACGCACAGACGU (ssRNA, rAfCrGmAmAmCfUmGfCfCfCfUmCmGmAmUmCmGrAfCmGfCmAmCmAmGmAfCrGfU-idT) [T59 vrt3]
- Kd ([13]; tags: factor VIII free): 288 nM

B10: T16 (ssRNA)
RNA: GGGAGGUGGACGAACUGCCCUCAGCUACGUUGCUGACGCACAGACGACUCGCUG
modifications: 2'-F C and U; 2'-OH A and G
- Kd [14]: 126 nM

Binder: CCCAAAACGAACUGCCCUCGAUCGACGCACAGACGU (ssRNA, 2'-F C and U; 2'-OH A and G; 3' idT) [T78]
- Kd [2]: 6.6 nM

Binder: ACGAACUGCCCUAUUAUUACGCACAGACGU (ssRNA, 2'-F C and U; 2'-OH A and G; 3' idT) [T64]
- Kd [14]: 54 nM

Binder: ACGAACUGCCCUCGAUCGACGCACAGACGU (ssRNA, mAmCmGmAmAmCfUrGfCfCfCmUmCmGmAmUmCmGmAfCmGfCmAmCmAmGmAmCmGfU-idT) [T59 vrt16]
- Kd [8]: 132 nM

Binder: ACGAACUGCCCUCGAUUAUUCGACGCACAGACGU (ssRNA, 2'-F C and U; 2'-OH A and G; 3' idT) [T49]
- Kd [9]: 10.5 nM

Binder: ACGAACUGCCCUCGACUUAUGUCGACGCACAGACGU (ssRNA, 2'-F C and U; 2'-OH A and G; 3' idT) [T48]
- Kd [15]: 12 nM

Binder: ACGAACUGCCCUCGUAUUAUUUCGACGCACAGACGU (ssRNA, 2'-F C and U; 2'-OH A and G; 3' idT) [T89]
- Kd [7]: 12 nM

Binder: ACGAACUGCCCUCGUAUUAUUUCGACGCACAGACGU (ssRNA, 2'-F C9,C10,C11,C26,C28,U36; rest 2'-OMe; 3' idT) [T89 vrt3]
- Kd [13, 16]: 63 nM

Binder: ACGAACUGCCCUCGUAUUAUUUCGACGCACAGACGU (ssRNA, 2'-F C9,C10,C11,C26,G27,C28,U36; rest 2'-OMe; 3' idT) [T89 vrt6]
- Kd [6, 16]: 34.5 nM

Binder: ACGAACGCCCUCGAUUAUUCGACGCACGACGU (ssRNA, 2'-F C and U; 2'-OH A and G; 3' idT) [T63]
- Kd [10]: 83 nM
